Experiment [1] has as its target T1, S1 subunit of the SARS-CoV-2 spike protein, WA01/2020 strain (SARS-CoV-2, WA01/2020 strain, UniProt P0DTC2 16-685).
The target in experiment [2] is T1, S1 subunit of the SARS-CoV-2 spike …. The experiment can be described thus: dose-response ELISA; antigen taken from the column 'Structural data'. On the technique in general: An ELISA detects its analyte on a solid surface through an enzyme-linked reagent.
In experiment [3] the target is T2, MERS-COV (S1+S2).
T2 chain: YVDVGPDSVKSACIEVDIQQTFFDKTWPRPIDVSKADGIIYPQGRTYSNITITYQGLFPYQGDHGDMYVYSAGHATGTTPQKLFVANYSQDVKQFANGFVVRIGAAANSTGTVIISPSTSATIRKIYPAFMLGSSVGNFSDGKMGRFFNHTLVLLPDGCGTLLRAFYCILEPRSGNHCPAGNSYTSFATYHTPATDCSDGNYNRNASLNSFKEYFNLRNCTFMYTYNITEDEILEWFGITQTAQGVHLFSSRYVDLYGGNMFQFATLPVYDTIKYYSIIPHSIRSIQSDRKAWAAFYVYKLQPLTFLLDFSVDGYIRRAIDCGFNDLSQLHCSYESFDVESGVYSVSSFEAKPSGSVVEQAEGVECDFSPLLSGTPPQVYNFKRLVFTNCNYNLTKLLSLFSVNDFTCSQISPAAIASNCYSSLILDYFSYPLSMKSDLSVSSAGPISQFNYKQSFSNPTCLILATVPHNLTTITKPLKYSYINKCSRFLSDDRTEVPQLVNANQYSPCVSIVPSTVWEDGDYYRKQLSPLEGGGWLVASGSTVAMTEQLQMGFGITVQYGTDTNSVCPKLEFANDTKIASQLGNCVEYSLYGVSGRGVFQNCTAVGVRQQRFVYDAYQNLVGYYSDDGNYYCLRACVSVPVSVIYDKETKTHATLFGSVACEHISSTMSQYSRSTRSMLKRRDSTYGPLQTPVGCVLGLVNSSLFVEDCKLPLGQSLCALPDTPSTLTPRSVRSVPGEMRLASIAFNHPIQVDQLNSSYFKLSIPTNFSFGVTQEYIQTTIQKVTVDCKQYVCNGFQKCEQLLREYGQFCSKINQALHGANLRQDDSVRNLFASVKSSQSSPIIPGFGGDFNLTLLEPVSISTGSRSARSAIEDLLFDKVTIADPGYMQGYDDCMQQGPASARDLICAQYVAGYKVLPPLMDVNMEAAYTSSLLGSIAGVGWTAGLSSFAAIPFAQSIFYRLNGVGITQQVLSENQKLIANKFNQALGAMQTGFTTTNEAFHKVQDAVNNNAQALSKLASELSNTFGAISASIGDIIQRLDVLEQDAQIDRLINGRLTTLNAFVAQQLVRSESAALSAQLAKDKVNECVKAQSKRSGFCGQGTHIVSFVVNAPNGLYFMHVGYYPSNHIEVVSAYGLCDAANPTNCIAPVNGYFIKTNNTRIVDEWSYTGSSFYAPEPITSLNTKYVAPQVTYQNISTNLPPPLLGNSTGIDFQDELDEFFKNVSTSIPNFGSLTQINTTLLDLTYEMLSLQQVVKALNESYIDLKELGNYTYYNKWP
Kind of experiment: dose-response ELISA on coated spike antigen.

Experiment [4] deals with T3, MERS-COV (S2).
T3 chain: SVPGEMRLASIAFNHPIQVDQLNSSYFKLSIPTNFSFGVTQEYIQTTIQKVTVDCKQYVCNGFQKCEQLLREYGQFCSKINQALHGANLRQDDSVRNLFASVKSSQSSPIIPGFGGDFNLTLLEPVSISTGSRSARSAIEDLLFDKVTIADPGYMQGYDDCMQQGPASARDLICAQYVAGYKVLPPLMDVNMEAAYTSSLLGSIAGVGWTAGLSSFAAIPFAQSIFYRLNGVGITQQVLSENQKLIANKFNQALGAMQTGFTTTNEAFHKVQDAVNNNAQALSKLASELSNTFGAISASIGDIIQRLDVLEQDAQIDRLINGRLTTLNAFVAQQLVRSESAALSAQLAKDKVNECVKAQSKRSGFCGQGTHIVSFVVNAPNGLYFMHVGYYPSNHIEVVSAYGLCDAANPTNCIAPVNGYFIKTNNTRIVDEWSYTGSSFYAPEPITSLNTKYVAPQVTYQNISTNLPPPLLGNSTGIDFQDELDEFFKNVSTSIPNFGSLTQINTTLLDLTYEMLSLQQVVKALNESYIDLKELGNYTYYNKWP
The experiment can be described thus: dose-response ELISA on coated spike antigen.

The target of experiment [5] is T4, SARS-CoV-2 nucleocapsid (N) protein (SARS-CoV-2, UniProt P0DTC9 1-419). Kind of experiment: ELISA screening, antibody concentration not given.
Experiment [6] addresses T1, S1 subunit of the SARS-CoV-2 spike …. Kind of experiment: ELISA screening, antibody concentration not given.
Experiment [7] has as its target T5, S2 subunit of the SARS-CoV-2 spike protein, WA01/2020 strain (SARS-CoV-2, WA01/2020 strain, UniProt P0DTC2 686-1213). The experiment can be described thus: ELISA on S2 (S2 Binding EC50).
Experiment [8] addresses T5, S2 subunit of the SARS-CoV-2 spike …. The experiment can be described thus: dose-response ELISA; antigen taken from the column 'Structural data'.
The target of experiment [9] is SARS-CoV-2 spike protein, WA1/2020, borne on lentiviral pseudovirus (SARS-CoV-2, WA01/2020 strain, UniProt P0DTC2 14-1273). The experiment can be described thus: cell-based or functional assay.
The target of experiment [10] is SARS-CoV (2003) spike protein borne on lentiviral pseudovirus (SARS-CoV (2003), UniProt P59594 14-1255). Kind of experiment: cell-based or functional assay.
Experiment [11] concerns the target T2, MERS-COV (S1+S2). Kind of experiment: dose-response ELISA on coated spike antigen.
For experiment [12], the target named is T3, MERS-COV (S2). Kind of experiment: dose-response ELISA on coated spike antigen.
The target of experiment [13] is T6, SARS-CoV-2 spike (S) protein trimer, WA01/2020 strain (SARS-CoV-2, WA01/2020 strain, UniProt P0DTC2 16-1213).
The target in experiment [14] is T6, SARS-CoV-2 spike (S) protein trimer, …. Kind of experiment: dose-response ELISA; antigen taken from the column 'Structural data'.
For experiment [15], the target named is T5, S2 subunit of the SARS-CoV-2 spike …. The experiment can be described thus: ELISA, antibody at 0.1 ug/mL.
Experiment [16] has as its target T4, SARS-CoV-2 nucleocapsid (N) protein. Kind of experiment: ELISA, antibody at 0.1 ug/mL.
The target of experiment [17] is T1, S1 subunit of the SARS-CoV-2 spike …. Kind of experiment: ELISA, antibody at 0.1 ug/mL.

Positions count from the first letter of the chain named. Where two headings read alike, the source gives them in different places.

B1: antibody 2080 (antibody, V domains shown)
VH: QVQLQQWGAGLLKPSETLSLTCAVYGGSFSGYYWSWIRQPPGKGLEWIGRINDIGSTDYNPSLKSRVTISVDTSKNQFSLKLTSVTAADTAVYYCAREPFDSEGTFDYWGQGTLVIVSS
VL: DIQMTQPPSTLSASVGDRVTITCRASQSISRWLAWYRQKPGKAPKLLIYDASSLQSGVPSRFSGSGSGTEFTLTISSLQPDDLATYYCQQYNTYPYTFGQGTKLEIK
What is called Kd is a measure of binding affinity in units of concentration. Lower therefore signals higher affinity. The term EC50 denotes the concentration needed to bring the measured effect to its halfway point. Low readings indicate greater potency, high ones weaker potency. Consider B1, for which the Kd in experiment [1] was determined as 0.69 nM. The concentration giving a half-maximal response (EC50) in [2] amounted to 0.025 nM.

B2: antibody 1872 (antibody, V domains shown)
VH: EVQLVESGGGLVKPGGSLRLSCAASGFSFSLYTMNWVRQAPGKGLEWVSYISSSSSYRYYADSVKGRFSVSRDNAKNALYLQMNGLRAEDTAVYYCARDGYCPRGVCTYYGMDVWGQGTTVTVSA
VL: EIVMTQSPATLSVSPGERATLSCRASQSVGSRLAWYQQKPGQAPRLLIYDATIRATGIPARFSGSGSGTDFTLTISGLQSEDFAVYYCQRYNNWPPAYTFGQGTKLEIK
As to B2, the binding result was “no binding (tested: 10000 ng/ml)” with MERS-COV (S1+S2) [3], “no binding (tested: 10000 ng/ml)” with MERS-COV (S2) [4], “no binding (tested: not printed)” in experiment [5] and “no binding (tested: not printed)” in experiment [6]. Moreover, the EC50 in [7] and in [8] was 0.071 nM in each case. Moreover, the “Pseudo Neut, WA1/2020 IC50 (pM)” value in experiment [9] was 133 pM. The “Pseudo Neut, SARS-CoV 2003 IC50” value in experiment [10] came out at 27 nM.

B3: antibody 1859 (antibody, V domains shown)
VH: B2 VH with S30N, L31T, R58K, A61S, N77K, A78S, R104N, A125L
VL: B2 VL with G30S, R32N, D50G, T52S, I53T, D70E, Y87F, R90Q, N92S, N93K
In the case of B3, the binding result in [5] was “no binding (tested: not printed)”; in experiment [6] it was “no binding (tested: not printed)”; with MERS-COV (S1+S2) [11], “no binding (tested: 10000 ng/ml)”; in the experiment with MERS-COV (S2) [12], “no binding (tested: 10000 ng/ml)”. For the same molecule, the EC50 in experiment [7] and in [8] was 1.22 nM each time. Also, the “Pseudo Neut, WA1/2020 IC50 (pM)” value in [9] was determined as 889 pM. Also, the “Pseudo Neut, SARS-CoV 2003 IC50” value in experiment [10] amounted to 115 nM.

B4: antibody 2024 (antibody, V domains shown)
VH: QVQLVQSGAEVKKPGASVKVSCKVSGYTLIELSMHWVRQAPGKGLEWMGGFDPEEGETIYAQKFQGRVTMTEDTSTDTAYMELSSLRSEDTAVYYCTTSPPVGATGAWFDPWGQGTLVTVSA
VL: SYVLTQPPSVSVAPGKTARITCGGNNIGSKSVHWYQQKPGQAPVLVVYDDSDRPSGIPERFSGSNSGNTATLTISGLQAEDEADYYCSSYTSSSTVVFGGGTKLTVL
On to B4, for which, in experiment [13], the Kd was 15.6 nM. In experiment [14], this molecule gave a concentration giving a half-maximal response (EC50) of 1.15 nM. Also, the binding result in experiment [15], in experiment [16] and in experiment [17] was “no binding (tested: 0.1 ug/mL)” throughout.
